Results published in article PMC2199960.

What was measured:
[1] = biological target: NC3 domain of the small collagen XII subunit (190 kD) (chick); assay: two-dimensional SDS-PAGE
[2] = biological target: collagen XII, small variant (small subunit, 220 kD) (chick); assay: electron microscopy
[3] = biological target: collagen XII, small variant (small subunit, 220 kD) (chick); assay: electron microscopy + nonreducing SDS-PAGE
[4] = biological target: collagen I from rat tail (rat) (UniProt P02454); assay: co-sedimentation
Chain of collagen I from rat tail (rat) (P02454 152-1207, chain 1 of 2): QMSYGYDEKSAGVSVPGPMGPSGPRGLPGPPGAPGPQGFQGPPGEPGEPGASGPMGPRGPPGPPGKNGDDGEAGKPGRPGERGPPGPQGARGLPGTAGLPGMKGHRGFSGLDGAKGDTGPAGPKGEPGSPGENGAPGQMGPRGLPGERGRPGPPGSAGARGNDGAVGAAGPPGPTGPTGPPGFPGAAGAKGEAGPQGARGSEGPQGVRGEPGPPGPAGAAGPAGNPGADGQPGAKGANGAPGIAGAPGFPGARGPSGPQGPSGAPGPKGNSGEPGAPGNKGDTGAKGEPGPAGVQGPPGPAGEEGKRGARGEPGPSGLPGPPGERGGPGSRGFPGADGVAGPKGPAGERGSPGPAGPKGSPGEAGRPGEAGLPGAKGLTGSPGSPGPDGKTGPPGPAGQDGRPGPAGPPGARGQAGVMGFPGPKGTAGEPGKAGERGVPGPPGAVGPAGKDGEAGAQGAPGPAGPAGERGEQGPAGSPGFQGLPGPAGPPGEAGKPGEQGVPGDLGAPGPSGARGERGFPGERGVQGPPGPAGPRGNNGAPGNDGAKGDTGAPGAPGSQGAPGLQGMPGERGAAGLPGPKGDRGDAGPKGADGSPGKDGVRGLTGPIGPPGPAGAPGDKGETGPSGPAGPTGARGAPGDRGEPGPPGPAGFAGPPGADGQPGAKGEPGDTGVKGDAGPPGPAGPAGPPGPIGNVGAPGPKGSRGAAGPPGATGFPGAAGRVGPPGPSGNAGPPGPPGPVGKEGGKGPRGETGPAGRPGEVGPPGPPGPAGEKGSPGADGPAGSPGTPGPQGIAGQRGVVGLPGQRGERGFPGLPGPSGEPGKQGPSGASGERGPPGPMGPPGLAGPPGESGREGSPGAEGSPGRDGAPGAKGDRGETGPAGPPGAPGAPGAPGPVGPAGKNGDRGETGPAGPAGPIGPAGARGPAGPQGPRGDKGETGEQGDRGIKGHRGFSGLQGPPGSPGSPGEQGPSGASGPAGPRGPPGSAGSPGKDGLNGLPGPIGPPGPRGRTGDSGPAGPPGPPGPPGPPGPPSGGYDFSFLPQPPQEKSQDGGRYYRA
Chain of collagen I from rat tail (rat) (P02466 86-1125, chain 2 of 2, further chain): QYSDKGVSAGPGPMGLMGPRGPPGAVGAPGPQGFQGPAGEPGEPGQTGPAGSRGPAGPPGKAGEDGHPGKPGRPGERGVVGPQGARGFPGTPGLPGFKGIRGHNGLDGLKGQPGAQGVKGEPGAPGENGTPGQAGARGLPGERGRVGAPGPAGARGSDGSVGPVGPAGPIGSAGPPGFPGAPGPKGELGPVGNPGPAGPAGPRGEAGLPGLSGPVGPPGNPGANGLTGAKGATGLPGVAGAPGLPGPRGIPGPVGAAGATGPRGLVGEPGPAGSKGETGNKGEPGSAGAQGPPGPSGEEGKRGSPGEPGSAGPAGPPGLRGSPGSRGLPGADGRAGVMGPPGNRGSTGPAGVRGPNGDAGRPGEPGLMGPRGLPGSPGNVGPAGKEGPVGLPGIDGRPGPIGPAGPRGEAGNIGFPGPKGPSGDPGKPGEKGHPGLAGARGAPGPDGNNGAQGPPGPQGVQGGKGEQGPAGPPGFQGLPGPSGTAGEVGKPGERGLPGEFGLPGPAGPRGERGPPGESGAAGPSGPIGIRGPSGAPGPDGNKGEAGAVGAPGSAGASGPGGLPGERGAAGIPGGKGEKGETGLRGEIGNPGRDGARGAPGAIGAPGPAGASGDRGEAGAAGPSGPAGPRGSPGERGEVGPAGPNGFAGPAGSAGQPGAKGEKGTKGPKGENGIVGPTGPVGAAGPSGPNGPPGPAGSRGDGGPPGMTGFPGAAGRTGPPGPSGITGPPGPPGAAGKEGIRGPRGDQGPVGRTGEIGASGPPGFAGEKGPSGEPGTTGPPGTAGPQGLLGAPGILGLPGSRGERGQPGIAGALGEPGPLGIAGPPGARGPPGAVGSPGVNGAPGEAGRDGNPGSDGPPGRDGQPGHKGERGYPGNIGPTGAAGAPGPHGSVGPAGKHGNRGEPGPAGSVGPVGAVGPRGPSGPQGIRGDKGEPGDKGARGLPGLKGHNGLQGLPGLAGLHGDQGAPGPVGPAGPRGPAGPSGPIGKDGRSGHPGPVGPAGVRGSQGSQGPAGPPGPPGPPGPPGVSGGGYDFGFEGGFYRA

NC3 domain of the small collagen XII subunit (190 kD) (domain or fragment)
stoichiometry N [1]: 3

collagen XII, small variant (small subunit, 220 kD) (natural protein)
stoichiometry N [2]: 3 | stoichiometry N [3]: 3

NC3 domain of the large collagen XII subunit (290 kD), collagenase-treated collagen XII (domain or fragment)
percent of truncated collagen XII in the pellet (90 mM NaCl, 30 mM phosphate) [4]: 20%
